± gives the uncertainty stated by the source.
B1: Zinc finger MYM-type protein 6, residues 427 to 504; numbered along this chain, O95789 (parent)
chain: KLKCQHCNHLFATKPELLFYKGKMFLFCGKNCSDEYKKKNKVVAMCDYCKLQKIIKETVRFSGVDKPFCSEVCKFLSA

Variants of: B1
Assay: abundance fitness (aPCA) (normalised: wild type 0, dead -1); higher = more abundant; growth selection in yeast, the domain comes from the species named
Conditions: Homo sapiens

Variant | abundance fitness
KLKCQHCNHLFATKPELLFYKGKMFLFCGKNCSDEYKKKNKVVAMCDYCKLKKIIKETVRFSGVDKPFCSEVCKFLSA [Q52K] | 0.51 ± 0.11
KLKCQHCNHLFATKPELLFYKGKMFLFCGKNCSDEYKKKNKVVAMCDYCKLQKIIKETVRFSGVDKPCCSEVCKFLSA [F68C] | 0.204 ± 0.15
KLKCQHCNHLFATKPELLFYKGKMFLFCGKNCSDEYKKKNKVVAMCDYCKLQKIIKETVRFSGVDKPSCSEVCKFLSA [F68S] | -0.842 ± 0.17
KLKCQHCNHLFATKPELLFYKGKMFLFCGKNCSDEYKKKNKVVAMCDYCKLQKIIKETVRFSGVLKPFCSEVCKFLSA [D65L] | -0.105 ± 0.099
KLKCQHCNHLFATKPELLFYKGKMFLFCGKNCSDEYKKKNKVVAMCDYCKLQKIIKSTVRFSGVDKPFCSEVCKFLSA [E57S] | -0.388 ± 0.13
KLKCQHCNHLFATKPELLFYKGKMFLFCGKNCSDEYKKKNKVVAMCDYCKLQKIIKDTVRFSGVDKPFCSEVCKFLSA [E57D] | 0.002 ± 0.3
KLKCQHCNHLFATKPELLFYKGKMFLFAGKNCSDEYKKKNKVVAMCDYCKLQKIIKETVRFSGVDKPFCSEVCKFLSA [C28A] | -1 ± 0.061
KLKCQHCNHLFATKPELLFYKGKMFLFCGKNCSDEYKKKNKVVAMCDYCKLQKIIKETVRFSGFDKPFCSEVCKFLSA [V64F] | -0.448 ± 0.4
KLKCQHCNHLFATKPWLLFYKGKMFLFCGKNCSDEYKKKNKVVAMCDYCKLQKIIKETVRFSGVDKPFCSEVCKFLSA [E16W] | -0.13 ± 0.031
KLKCQHCNHLFATKPALLFYKGKMFLFCGKNCSDEYKKKNKVVAMCDYCKLQKIIKETVRFSGVDKPFCSEVCKFLSA [E16A] | -0.091 ± 0.031
KLKCQHCNHLFATKPPLLFYKGKMFLFCGKNCSDEYKKKNKVVAMCDYCKLQKIIKETVRFSGVDKPFCSEVCKFLSA [E16P] | -0.414 ± 0.045
KLKCQHCNHLFATKPELLFYKGKMFLFCGKRCSDEYKKKNKVVAMCDYCKLQKIIKETVRFSGVDKPFCSEVCKFLSA [N31R] | 0.012 ± 0.029
KLKCQHCNHLFATKPELKFYKGKMFLFCGKNCSDEYKKKNKVVAMCDYCKLQKIIKETVRFSGVDKPFCSEVCKFLSA [L18K] | -0.059 ± 0.088
KLKCQHCNHWFATKPELLFYKGKMFLFCGKNCSDEYKKKNKVVAMCDYCKLQKIIKETVRFSGVDKPFCSEVCKFLSA [L10W] | 0.004 ± 0.033
KLKCQHCNHLFATKPELLFYKGKMFLFCGKNCSDEYKKKSKVVAMCDYCKLQKIIKETVRFSGVDKPFCSEVCKFLSA [N40S] | 0.049 ± 0.053
KLKCQHCNHLFATKPELLFYKGKMFLFCGKNCSDEYKKKNKVVAMCNYCKLQKIIKETVRFSGVDKPFCSEVCKFLSA [D47N] | -0.327 ± 0.19
KLKCQHCNHLFATKGELLFYKGKMFLFCGKNCSDEYKKKNKVVAMCDYCKLQKIIKETVRFSGVDKPFCSEVCKFLSA [P15G] | -0.163 ± 0.029
KLKCQHCNHLFATKSELLFYKGKMFLFCGKNCSDEYKKKNKVVAMCDYCKLQKIIKETVRFSGVDKPFCSEVCKFLSA [P15S] | -0.119 ± 0.05
KLKCQHCNHLFATKPELLFYKVKMFLFCGKNCSDEYKKKNKVVAMCDYCKLQKIIKETVRFSGVDKPFCSEVCKFLSA [G22V] | -0.255 ± 0.047
KLKCQHCNHLFATKPELLFYKMKMFLFCGKNCSDEYKKKNKVVAMCDYCKLQKIIKETVRFSGVDKPFCSEVCKFLSA [G22M] | -0.118 ± 0.11
KLKCQHCNHLFATKPELLFYKGKMFLRCGKNCSDEYKKKNKVVAMCDYCKLQKIIKETVRFSGVDKPFCSEVCKFLSA [F27R] | -0.805 ± 0.04
KLKCQHCNHLFATKPEALFYKGKMFLFCGKNCSDEYKKKNKVVAMCDYCKLQKIIKETVRFSGVDKPFCSEVCKFLSA [L17A] | -0.003 ± 0.032
KLKCQHCNHLFATKPELLFYKGKMFLFCGKNCSDEYKKKNKVVAMCDYCKLQKIIKETVRFSGVDKMFCSEVCKFLSA [P67M] | 0.952 ± 0.092
KLKCQHCNHLFATKPELLFYKGKMFLFCGKNCSDEYKKKNKVVAMCDYCKKQKIIKETVRFSGVDKPFCSEVCKFLSA [L51K] | 0.414 ± 0.11

Variant | abundance fitness
KLKCQHCNHLFATKPELLFYKGKMFLFCGKNCSDEYKKKNKVVAMCDYCKLQKIIKETVRFSGVDKPFCSTVCKFLSA [E71T] | 0.076 ± 0.1
KPKCQHCNHLFATKPELLFYKGKMFLFCGKNCSDEYKKKNKVVAMCDYCKLQKIIKETVRFSGVDKPFCSEVCKFLSA [L2P] | -0.068 ± 0.052
KLKCQHCNHLFATKPELLFYKGKMFLFCGKNCSDEYKKKNKVVAMCDYCKLQKKIKETVRFSGVDKPFCSEVCKFLSA [I54K] | 0.356 ± 0.17
KLKCQHCNHLFATKPELLFYKGKMFLFCGKNCSDEYKKKNKVVAMCDYCKLQKIIKETVRFSGVDKPFCSEVCLFLSA [K74L] | -0.594 ± 0.15
KLKCQHCNHLFATKPELLFYKGKMFLFCGKNCSDEYKKKNKVVAMCDYCKLQKIIKETVRFSGVDKPFCSEVCEFLSA [K74E] | -0.39 ± 0.16
KLKCQHCNHLFATKPELLFYKGKMFLFCGKNCSDEWKKKNKVVAMCDYCKLQKIIKETVRFSGVDKPFCSEVCKFLSA [Y36W] | -0.042 ± 0.033
KLKCQHCNHLFATKPELLFYKGKMFLFCGKNCSDEHKKKNKVVAMCDYCKLQKIIKETVRFSGVDKPFCSEVCKFLSA [Y36H] | -0.005 ± 0.076
KLKCQHCNHLFATKPELLFYKGKMFLFCGKNCSDEYKKKNKVVAMCDYCKLQKIIKETVVFSGVDKPFCSEVCKFLSA [R60V] | -0.093 ± 0.12
KLKCQHCNHLFATKPELLFYKGKMFLFCGKNCSDEYKKKNKVVAMCDYCKLQKIIKEDVRFSGVDKPFCSEVCKFLSA [T58D] | 0.779 ± 0.11
KLKCQHCNHLFATKPELLFYKGKMFLFCGKNCSDEYKKKNKVVAMCDYCKLQKIIKETVRFSGVDKPFCAEVCKFLSA [S70A] | -0.651 ± 0.12
KLKCQHCNHLFATKPELLFYKGKMFLFCGKNCSDEYKKKNKVVAMCDYCKLQKIIKETVRFSGVDKPFCLEVCKFLSA [S70L] | -0.162 ± 0.2
KLKCQHCNHLFATKPELLFYKGKMFLFCQKNCSDEYKKKNKVVAMCDYCKLQKIIKETVRFSGVDKPFCSEVCKFLSA [G29Q] | -0.09 ± 0.056
KLKCQHCNHLFATKPELLFYKGKMFLFCEKNCSDEYKKKNKVVAMCDYCKLQKIIKETVRFSGVDKPFCSEVCKFLSA [G29E] | -0.131 ± 0.069
KLKCQHCNHLFATKPELLFYKGKMFLFCPKNCSDEYKKKNKVVAMCDYCKLQKIIKETVRFSGVDKPFCSEVCKFLSA [G29P] | -0.683 ± 0.069
KLKCQHCNHLFATKPELLFYKGKMFLFCWKNCSDEYKKKNKVVAMCDYCKLQKIIKETVRFSGVDKPFCSEVCKFLSA [G29W] | -0.602 ± 0.041
KLTCQHCNHLFATKPELLFYKGKMFLFCGKNCSDEYKKKNKVVAMCDYCKLQKIIKETVRFSGVDKPFCSEVCKFLSA [K3T] | -0.102 ± 0.046
KLICQHCNHLFATKPELLFYKGKMFLFCGKNCSDEYKKKNKVVAMCDYCKLQKIIKETVRFSGVDKPFCSEVCKFLSA [K3I] | -0.124 ± 0.068
KLKCQHCNHLFATKPELLFYKGKMFLFCGKNCSDEYKKKNKVVAMCDYCKLQKIIMETVRFSGVDKPFCSEVCKFLSA [K56M] | 0.511 ± 0.12
KLKCQHCNHLFATKPELLFYKGKVFLFCGKNCSDEYKKKNKVVAMCDYCKLQKIIKETVRFSGVDKPFCSEVCKFLSA [M24V] | -0.172 ± 0.044
KLKCQHCNHLFATKPELLFYKGKLFLFCGKNCSDEYKKKNKVVAMCDYCKLQKIIKETVRFSGVDKPFCSEVCKFLSA [M24L] | -0.109 ± 0.045
KLKCQHCNHLFATKPELLFYKGKYFLFCGKNCSDEYKKKNKVVAMCDYCKLQKIIKETVRFSGVDKPFCSEVCKFLSA [M24Y] | -0.249 ± 0.093
KLKCQHCNHLFATKPELLFYKGKMFLFCGKNCSDEYKKKNKVVAMCDYCKLQKIHKETVRFSGVDKPFCSEVCKFLSA [I55H] | 0.164 ± 0.15
KLKCQHCNHLFATKPELLFYKGKMFLFCGKNCSDEYKKKNKVVAMCDYCKLQKIGKETVRFSGVDKPFCSEVCKFLSA [I55G] | 0.16 ± 0.063
KLKCQHCNHLFATKPELLFYKGKMFLFCGKNCSDPYKKKNKVVAMCDYCKLQKIIKETVRFSGVDKPFCSEVCKFLSA [E35P] | -0.331 ± 0.051

Variant | abundance fitness
KLKCQHCNHLFATKPELLFYKGKMFLFCGKNCSDLYKKKNKVVAMCDYCKLQKIIKETVRFSGVDKPFCSEVCKFLSA [E35L] | -0.096 ± 0.042
KLKCQHCNHLFATKPELLFYKGKMFLFCGKNCSDEYKKKNKVVKMCDYCKLQKIIKETVRFSGVDKPFCSEVCKFLSA [A44K] | 0.117 ± 0.14
KLKCQHCNHLFATKPELLFYKGKMFLFCGKNCSDEYKKKNKVVPMCDYCKLQKIIKETVRFSGVDKPFCSEVCKFLSA [A44P] | -0.604 ± 0.28
KLKCQHCSHLFATKPELLFYKGKMFLFCGKNCSDEYKKKNKVVAMCDYCKLQKIIKETVRFSGVDKPFCSEVCKFLSA [N8S] | 0.042 ± 0.036
KLKCQHCNHLFATKPELLFYKGKMFLFCGKNCSDEYKKKNKVVAMCDYCKLQKIIKETVRFSVVDKPFCSEVCKFLSA [G63V] | -0.713 ± 0.2
KLKCQHCNHLFATKPELLFYKGKMFLFCGKNCSDEYKKGNKVVAMCDYCKLQKIIKETVRFSGVDKPFCSEVCKFLSA [K39G] | 0.005 ± 0.027
KLKCQHCNHLFATKPELLFYKGKMFLFCGKNCSDEYKKLNKVVAMCDYCKLQKIIKETVRFSGVDKPFCSEVCKFLSA [K39L] | -0.107 ± 0.052
KLKCQHCNHLFATKPELLFYKGKMFLFCGKNCSDEYKPKNKVVAMCDYCKLQKIIKETVRFSGVDKPFCSEVCKFLSA [K38P] | -0.163 ± 0.042
KLKCQHCNHLFATKPELLFYKGKMFLFCGKNCSDEYKKKNKVVAMCDYCKLQKIIKETVRFSGVDHPFCSEVCKFLSA [K66H] | -0.091 ± 0.19
KLKCQHCNHLFATKPELLFYKGKMPLFCGKNCSDEYKKKNKVVAMCDYCKLQKIIKETVRFSGVDKPFCSEVCKFLSA [F25P] | -0.17 ± 0.036
KLKCQHCNHLFATKPELLFYKGKMFLFCGKNCSDEYKKKNKVVASCDYCKLQKIIKETVRFSGVDKPFCSEVCKFLSA [M45S] | -0.073 ± 0.094
KLKCQHCNHLFATKPELLFYKGKMFLFCGKNCSDEYKKKNKVVACCDYCKLQKIIKETVRFSGVDKPFCSEVCKFLSA [M45C] | -0.407 ± 0.26
KLKCQHCNHLFATKPELLFYKGKMFLFCGKNCSDEYKKKNKVVAMCDYMKLQKIIKETVRFSGVDKPFCSEVCKFLSA [C49M] | -0.677 ± 0.23
KLKCQHCNHLFATKPELLFYKGKMFLFCGKNCSDEYKKKNKVVAMCDYEKLQKIIKETVRFSGVDKPFCSEVCKFLSA [C49E] | -0.64 ± 0.18
KLKCQHCNHLFATKPELLFYKGKMFLFCGYNCSDEYKKKNKVVAMCDYCKLQKIIKETVRFSGVDKPFCSEVCKFLSA [K30Y] | -0.028 ± 0.092
KLKCQHCNHLFATKPELLFYKGKMFVFCGKNCSDEYKKKNKVVAMCDYCKLQKIIKETVRFSGVDKPFCSEVCKFLSA [L26V] | 0.037 ± 0.031
KLKCQDCNHLFATKPELLFYKGKMFLFCGKNCSDEYKKKNKVVAMCDYCKLQKIIKETVRFSGVDKPFCSEVCKFLSA [H6D] | -0.1 ± 0.083
KLKCQSCNHLFATKPELLFYKGKMFLFCGKNCSDEYKKKNKVVAMCDYCKLQKIIKETVRFSGVDKPFCSEVCKFLSA [H6S] | -0.085 ± 0.037
KLKCQHCNHLFATKPELLFYKGKMFLFCGKNCSDEYKKKNKVVAMCDYCKLQKIIKETVRFSGVDKPFCSEWCKFLSA [V72W] | 0.353 ± 0.094
KLKCQHCNHLFATKPELLFYKGKMFLFCGKNCSDEYKKKNKVVAMCDGCKLQKIIKETVRFSGVDKPFCSEVCKFLSA [Y48G] | -0.174 ± 0.077
KLKCQHCNHLFATKPELLFHKGKMFLFCGKNCSDEYKKKNKVVAMCDYCKLQKIIKETVRFSGVDKPFCSEVCKFLSA [Y20H] | -0.079 ± 0.053
KLKCQHCNHLFATKPELLFYKGKMFLFCGKNCSDEYKKKNKVVAMCDYCKLQKIIKETTRFSGVDKPFCSEVCKFLSA [V59T] | 0.204 ± 0.18

— the Human Domainome abundance scans (Beltran et al. 2025)
